The text below walks through data of US20160108128A1 (CANCER RESEARCH TECHNOLOGY, published 2016).

Positions count from the first letter of the chain named.

B1: J1-65D chimeric (antibody, human IgG1, V domains shown)
VH: QVQLQQPGAELVRPGASVKLSCKALGYTFTDYEMHWVKETPVHGLEWIGAIQPGGGGTAYNQKFKGKATLTADKSSSTAYMELSSLTSEDSAVYYCTRRGYDDYPFAYWGQGTLVTVSS
VL: DIQLTQSPASLSASVGETVTITCRASGNIHNYLAWYQQKQGKSPQLLVYNAKTLADDIPSRFSGSGSGTQYSLKINSLQPEDFGSYYCQHFWSAPWTFGGGTKLEIK
notes: chimeric antibody with unaltered CDRs; vectors encode human IgG1
B2: J1-183D variant 10 (antibody, human IgG1, V domains shown)
VH: QVQLVQSGAELKKPGASVKVSCKVSGYAFTDYAIHWIRQAPGQGLEWMGIINTYYGDSKYAQKFQGRVTMTVDTSTSTAYMELSSLRSEDTAVYYCARGYDGFAYWGQGTLVTVSS
VL: DIQMTQSPSSLSASVGDRVTITCRTSENIYSYLTWYQQKPGKAPKLLIYNAKILDSGVPSRFSGSGSGTDFTLTISSLQPEDFATYYCQHHYDIPWTFGGGTKLEIKR
notes: human IgG1; also called J1-183DV10; V10
B3: J1-183D variant 15 (antibody, human IgG1, V domains shown)
VH: B2 VH with I37V
VL: B2 VL with N50H
notes: human IgG1; also called J1-183DV15; V15
B4: J1-183D variant 9 (antibody, human IgG1, V domains shown)
VH: B2 VH with A61N, Q65K, G66D, T74K
VL: B2 VL
notes: human IgG1; also called J1-183DV9; V9
B5: J1-183D variant 7 (antibody, human IgG1, V domains shown)
VH: B2 VH with I37V
VL: B2 VL with I53T, D55A
notes: human IgG1; also called J1-183DV7; V7
B6: J1-183D variant 6 (antibody, human IgG1, V domains shown)
VH: B2 VH
VL: B2 VL with I53T, D55A
notes: human IgG1; also called J1-183DV6; V6
B7: J1-183D variant 4 (antibody, human IgG1, V domains shown)
VH: B2 VH with L11V, V24A, A28T, I37V
VL: B2 VL with I48V, D55A, S56A
notes: human IgG1; also called J1-183DV4; V4
B8: J1-183D variant 11 (antibody, human IgG1, V domains shown)
VH: B2 VH with I37V
VL: B2 VL
notes: human IgG1; also called J1-183DV11; V11
B9: J1-183D variant 5 (antibody, human IgG1, V domains shown)
VH: B2 VH with A61N, Q65K, G66D, T74K
VL: B2 VL with I53T, D55A
notes: human IgG1; also called J1-183DV5; V5
B10: J1-183D variant 16 (antibody, human IgG1, V domains shown)
VH: B2 VH with L11V, V24A, A28T, I37V
VL: B2 VL with N50H
notes: human IgG1; also called J1-183DV16; V16
B11: J1-183D variant 13 (antibody, human IgG1, V domains shown)
VH: B2 VH with A61N, Q65K, G66D, T74K
VL: B2 VL with N50H
notes: human IgG1; also called J1-183DV13; V13
B12: J1-183D variant 3 (antibody, human IgG1, V domains shown)
VH: B2 VH with I37V
VL: B2 VL with I48V, D55A, S56A
notes: human IgG1; also called J1-183DV3; V3
B13: J1-183D variant 12 (antibody, human IgG1, V domains shown)
VH: B2 VH with L11V, V24A, A28T, I37V
VL: B2 VL
notes: human IgG1; also called J1-183DV12; V12
B14: J1-183D variant 8 (antibody, human IgG1, V domains shown)
VH: B2 VH with L11V, V24A, A28T, I37V
VL: B2 VL with I53T, D55A
notes: human IgG1; also called J1-183DV8; V8
B15: J1-183D variant 2 (antibody, human IgG1, V domains shown)
VH: B2 VH
VL: B2 VL with I48V, D55A, S56A
notes: human IgG1; also called J1-183DV2; V2
B16: J1-183D variant 14 (antibody, human IgG1, V domains shown)
VH: B2 VH
VL: B2 VL with N50H
notes: human IgG1; also called J1-183DV14; V14
B17: J1-183D variant 1 (antibody, human IgG1, V domains shown)
VH: B2 VH with A61N, Q65K, G66D, T74K
VL: B2 VL with I48V, D55A, S56A
notes: human IgG1; also called J1-183DV1; V1
B18: J1-65D variant 14 (antibody, human IgG1, V domains shown)
VH: QVQLVQSGAELKKPGSSVKVSCKASGYTFTDYEMHWVRQAPGQGLEWMGAIQPGGGGTAYAQKFKGRVTLTADKSTSTAYMELSSLRSEDTAVYYCTRRGYDDYPFAYWGQGTLVTVSS
VL: DIQMTQSPSSLSASVGDRVTITCRASQGIHNYLAWYQQKPGKAPKLLIYNAKTLADAVPSRFSGSGSGTDYTLTISSLQPEDFATYYCQQFWSAPWTFGQGTKLEIK
notes: human IgG1; also called J1-65DV14; V14
B19: J1-65D variant 16 (antibody, human IgG1, V domains shown)
VH: B18 VH with L11V, K65Q, L70I
VL: B18 VL
notes: human IgG1; also called J1-65DV16; V16
B20: J1-65D variant 15 (antibody, human IgG1, V domains shown)
VH: B18 VH with L11V, K65Q
VL: B18 VL
notes: human IgG1; also called J1-65DV15; V15
B21: J1-65D variant 13 (antibody, human IgG1, V domains shown)
VH: B18 VH with A61N
VL: B18 VL
notes: human IgG1; also called J1-65DV13; V13
B22: J1-183D chimeric (antibody, human IgG1, V domains shown)
VH: QVQLQQPGTELVRPGVSVKISCKVSGYAFTDYAIHWIMQSHAKSLEWIGIINTYYGDSKYNQKFKDKATMTVDKSSNTAYMELARLTSEDSAIYYCARGYDGFAYWGQGTLVTVSS
VL: DIQLTQSPASLSASVGETVTFTCRTSENIYSYLTWYQQKQGKSPQLLVYNAKILAAGVPSRFSGYGSGTQFSLKINSLQPEDFGTYYCQHHYDIPWTFGGGTKLEIK
notes: as for B1

T2 sequence (P78504 185-335, form in doubt): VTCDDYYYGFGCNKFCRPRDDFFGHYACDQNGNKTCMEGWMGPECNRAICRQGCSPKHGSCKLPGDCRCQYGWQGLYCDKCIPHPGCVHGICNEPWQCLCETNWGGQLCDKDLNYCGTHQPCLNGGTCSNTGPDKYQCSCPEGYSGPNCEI

The first experiment deals with T1, murine Jagged 1, full length, on B16F10 cells (mouse, UniProt Q9QXX0 34-1218).
T1 construct: whole, on cells; GFP co-expressed; also called mJ1; B16F10-mJAG1
T1 sequence (Q9QXX0 34-1218, one chain of several): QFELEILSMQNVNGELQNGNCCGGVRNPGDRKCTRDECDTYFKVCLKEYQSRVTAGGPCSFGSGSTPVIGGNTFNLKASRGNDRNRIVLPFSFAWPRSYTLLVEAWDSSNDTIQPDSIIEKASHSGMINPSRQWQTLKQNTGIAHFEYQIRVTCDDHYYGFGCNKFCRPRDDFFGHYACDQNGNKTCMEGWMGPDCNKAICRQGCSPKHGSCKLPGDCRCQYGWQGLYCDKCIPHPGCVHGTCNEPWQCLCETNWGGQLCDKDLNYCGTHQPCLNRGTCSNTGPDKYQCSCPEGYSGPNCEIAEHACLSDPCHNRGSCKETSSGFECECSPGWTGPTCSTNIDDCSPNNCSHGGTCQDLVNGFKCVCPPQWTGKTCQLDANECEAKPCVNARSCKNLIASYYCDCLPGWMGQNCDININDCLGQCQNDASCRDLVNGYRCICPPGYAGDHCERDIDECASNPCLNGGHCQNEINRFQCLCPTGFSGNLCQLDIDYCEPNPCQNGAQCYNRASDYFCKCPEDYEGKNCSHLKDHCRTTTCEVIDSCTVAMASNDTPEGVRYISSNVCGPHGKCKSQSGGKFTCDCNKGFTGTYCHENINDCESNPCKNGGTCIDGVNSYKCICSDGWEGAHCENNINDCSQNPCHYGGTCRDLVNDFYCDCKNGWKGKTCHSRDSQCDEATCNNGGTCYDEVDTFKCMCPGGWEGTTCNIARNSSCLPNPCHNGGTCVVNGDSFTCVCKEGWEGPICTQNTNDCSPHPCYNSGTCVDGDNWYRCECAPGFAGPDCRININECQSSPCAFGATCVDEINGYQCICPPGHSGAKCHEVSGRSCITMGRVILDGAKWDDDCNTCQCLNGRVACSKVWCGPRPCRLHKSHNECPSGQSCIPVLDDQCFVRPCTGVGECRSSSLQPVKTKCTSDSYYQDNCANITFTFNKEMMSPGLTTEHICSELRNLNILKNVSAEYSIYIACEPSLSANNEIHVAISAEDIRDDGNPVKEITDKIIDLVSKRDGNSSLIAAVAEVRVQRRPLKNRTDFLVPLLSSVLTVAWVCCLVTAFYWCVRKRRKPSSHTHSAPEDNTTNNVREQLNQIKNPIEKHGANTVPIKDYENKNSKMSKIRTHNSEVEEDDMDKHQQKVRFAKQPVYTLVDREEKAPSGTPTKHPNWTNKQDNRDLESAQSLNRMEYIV
The experiment in a line: FACS, B16F10-mJAG1 cells, anti-human-APC. As for the experimental part:
FIG. 19. […] Samples were analysed by FACS and the mean fluorescence intensities (MFI) were plotted.
(§1) HEK293 cells transfected with human J1, J2 or FLAG-EGFP-tagged DSL-EGF3 constructs, B16F10 cells transfected with human DLL4 or mouse J1, and human cancer cell lines, were stained with either purified anti-J1 antibodies at 10 μg/ml diluted in FACS wash buffer (2% FBS in PBS+0.1% sodium azide) or neat hybridoma supernatants followed by a allophycocyanin (APC)-conjugated secondary antibody at 1:200 dilution: for murine primary antibodies, used goat anti-mouse-APC (eBioscience); for humanised and chimeric antibodies used goat anti-human IgG (H+L) secondary antibody (Jackson ImmunoResearch Laboratories). After washing, samples were fixed with 1% paraformaldehyde (in PBS) and acquired with a FACSCalibur. FACS data were analysed with FlowJo software (TreeStar Inc.).
As to B1, the binding result is recorded as “no binding (tested: 10 ug/ml)”.

For B2, the binding result is reported as “no binding (tested: 10 ug/ml)”.

Regarding B3, the binding result is “no binding (tested: 10 ug/ml)”.

Turning to B4, the binding result is “no binding (tested: 10 ug/ml)”.

As to B5, the binding result was “no binding (tested: 10 ug/ml)”.

Regarding B6, the binding result is given as “no binding (tested: 10 ug/ml)”.

Regarding B7, the binding result is “no binding (tested: 10 ug/ml)”.

For the molecule B8, the binding result is “no binding (tested: 10 ug/ml)”.

B9: the binding result is recorded as “no binding (tested: 10 ug/ml)”.

For the molecule B10, the binding result is listed as “no binding (tested: 10 ug/ml)”.

As for B11, the binding result is given as “no binding (tested: 10 ug/ml)”.

Take B12: the binding result is on record as “no binding (tested: 10 ug/ml)”.

In the case of B13, the binding result is “no binding (tested: 10 ug/ml)”.

Consider B14, for which the binding result was “no binding (tested: 10 ug/ml)”.

With B15, the binding result is listed as “no binding (tested: 10 ug/ml)”.

For B16, the binding result is given as “no binding (tested: 10 ug/ml)”.

In the case of B17, the binding result is “no binding (tested: 10 ug/ml)”.

With B18, the binding result was “no binding (tested: 10 ug/ml)”.

B19: the binding result was “no binding (tested: 10 ug/ml)”.

Consider B20, for which the binding result is “no binding (tested: 10 ug/ml)”.

Consider B21, for which the binding result is “no binding (tested: 10 ug/ml)”.

B22: the binding result is reported as “no binding (tested: 10 ug/ml)”.

Another experiment concerns the target T2, J1 DSL-EGF3 soluble recombinant protein (human Jagged 1 amino acids 185-335) (human, UniProt P78504 185-335).
T2 construct: biotinylated in the CD46 ELISA; also called J1-DE3; DSL+EGF1-3
The experiment in a line: affinity to the immunogen J1-DE3; method not stated.
For B2, the Kd was determined as 1.77 nM.

In the case of B3, the Kd is 5.47 nM.

In the case of B4, the Kd stood at 0.68 nM.

Turning to B5, the Kd turned out to be 1.26 nM.

As for B6, the Kd is 1.39 nM.

Turning to B7, the Kd turned out to be 2.76 nM.

For B8, the Kd turned out to be 2.82 nM.

For the molecule B9, the Kd came out at 2.75 nM.

As for B10, the dissociation constant Kd stood at 4.86 nM.

For B11, the Kd came out at 1.5 nM.

On to B12, for which the Kd was found to be 2.55 nM.

B13: the equilibrium dissociation constant (Kd) came to 2.61 nM.

B14: the Kd came out at 1.48 nM.

Turning to B15, the Kd was found to be 2.19 nM.

As to B16, the Kd was found to be 3.91 nM.

With B17, the Kd was found to be 0.77 nM.

With B18, the Kd turned out to be 58.3 nM.

As for B19, the Kd was 52.1 nM.

B20: the Kd turned out to be 39.8 nM.

As for B21, the Kd amounted to 14.2 nM.

The target of another experiment is T3, human Jagged 2, full length, on HEK293 cells (human, UniProt Q9Y219 24-1238).
T3 construct: whole, on cells; also called J2; hJ2
T3 sequence (Q9Y219 24-1238): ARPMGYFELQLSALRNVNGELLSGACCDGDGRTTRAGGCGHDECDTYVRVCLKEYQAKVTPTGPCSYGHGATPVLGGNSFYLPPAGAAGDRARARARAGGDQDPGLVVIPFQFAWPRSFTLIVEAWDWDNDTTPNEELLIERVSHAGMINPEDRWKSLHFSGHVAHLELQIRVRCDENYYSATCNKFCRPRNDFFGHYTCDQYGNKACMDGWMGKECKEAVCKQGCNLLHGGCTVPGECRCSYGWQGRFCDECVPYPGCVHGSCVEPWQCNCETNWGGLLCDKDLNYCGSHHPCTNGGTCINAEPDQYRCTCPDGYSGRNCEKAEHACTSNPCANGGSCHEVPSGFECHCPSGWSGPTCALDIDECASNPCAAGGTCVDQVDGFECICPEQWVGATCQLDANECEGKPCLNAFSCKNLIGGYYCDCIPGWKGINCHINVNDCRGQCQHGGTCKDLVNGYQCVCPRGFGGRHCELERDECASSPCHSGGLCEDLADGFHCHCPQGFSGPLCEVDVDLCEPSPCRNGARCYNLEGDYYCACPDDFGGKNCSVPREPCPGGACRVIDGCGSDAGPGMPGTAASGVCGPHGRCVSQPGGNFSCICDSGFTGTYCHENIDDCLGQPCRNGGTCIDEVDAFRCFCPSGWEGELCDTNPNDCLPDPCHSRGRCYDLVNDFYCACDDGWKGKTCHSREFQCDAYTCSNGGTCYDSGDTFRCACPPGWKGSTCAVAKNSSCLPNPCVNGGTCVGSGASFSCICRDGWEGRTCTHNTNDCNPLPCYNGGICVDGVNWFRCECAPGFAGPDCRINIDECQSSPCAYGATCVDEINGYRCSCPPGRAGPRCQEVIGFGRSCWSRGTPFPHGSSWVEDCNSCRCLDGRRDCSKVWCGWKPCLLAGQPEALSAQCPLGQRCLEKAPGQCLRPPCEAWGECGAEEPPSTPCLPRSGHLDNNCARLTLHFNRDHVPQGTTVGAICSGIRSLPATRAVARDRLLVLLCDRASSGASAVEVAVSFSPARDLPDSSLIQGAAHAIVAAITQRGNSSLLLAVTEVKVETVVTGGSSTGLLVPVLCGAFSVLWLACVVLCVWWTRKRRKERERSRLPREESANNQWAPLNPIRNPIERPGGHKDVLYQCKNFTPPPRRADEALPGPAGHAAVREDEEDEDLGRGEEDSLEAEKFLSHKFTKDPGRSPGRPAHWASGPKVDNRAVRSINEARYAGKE
The experiment in a line: FACS, 293-JAG2 cells, anti-human-APC. How it is done:
FIG. 18. […] Samples were analysed by FACS and the mean fluorescence intensities (MFI) were plotted. […] With the exception of J1-65D variants 13-16, all the remaining antibodies effectively bound the human J1 protein.
as §1
Consider B1, for which the binding result is listed as “no binding (tested: 10 ug/ml)”.

Turning to B2, the binding result is given as “no binding (tested: 10 ug/ml)”.

On to B3, for which the binding result is on record as “no binding (tested: 10 ug/ml)”.

For the molecule B4, the binding result is “no binding (tested: 10 ug/ml)”.

Take B5: the binding result is “no binding (tested: 10 ug/ml)”.

For B6, the binding result was “no binding (tested: 10 ug/ml)”.

For the molecule B7, the binding result is “no binding (tested: 10 ug/ml)”.

With B8, the binding result was “no binding (tested: 10 ug/ml)”.

For the molecule B9, the binding result was “no binding (tested: 10 ug/ml)”.

As to B10, the binding result is given as “no binding (tested: 10 ug/ml)”.

As for B11, the binding result is “no binding (tested: 10 ug/ml)”.

For the molecule B12, the binding result is given as “no binding (tested: 10 ug/ml)”.

B13: the binding result is “no binding (tested: 10 ug/ml)”.

Take B14: the binding result is listed as “no binding (tested: 10 ug/ml)”.

With B15, the binding result is on record as “no binding (tested: 10 ug/ml)”.

In the case of B16, the binding result is “no binding (tested: 10 ug/ml)”.

Consider B17, for which the binding result is reported as “no binding (tested: 10 ug/ml)”.

For B18, the binding result is on record as “no binding (tested: 10 ug/ml)”.

B19: the binding result is “no binding (tested: 10 ug/ml)”.

B20: the binding result is recorded as “no binding (tested: 10 ug/ml)”.

As for B21, the binding result was “no binding (tested: 10 ug/ml)”.

Take B22: the binding result is reported as “no binding (tested: 10 ug/ml)”.
